Measured values: patent US20240075137A1

Experiments:
[1] = biological target: mouse PVRIG on cells (mouse); experiment: FACS titration, D10.G4.1 cells
[2] = biological target: mouse PVRIG on cells (mouse); experiment: FACS titration, HEK293 mPVRIG over-expressing cells
[3] = biological target: mouse PVRIG on cells (mouse); experiment: FACS, D10.G4.1 cells vs isotype
[4] = biological target: mouse PVRIG on cells (mouse); experiment: FACS, HEK293 mPVRIG over-expressing vs empty vector cells, 10 ug/ml
[5] = biological target: mouse PVRIG-Fc fusion protein (mouse); experiment: blocking of mPVRIG-Fc (029-Fc) binding to mPVRL2 over-expressing cells
[6] = biological target: mouse PVRIG on cells (mouse); experiment: FACS, NK cells, 10 ug/ml vs isotype

Kd [1]: 1.32 nM
Kd [2]: 0.334 nM
MFIr on D10.G4.1 (Ab/Iso) [3]: 8
MFIr (HEK OX/EV) [4]: 50
% R-L blocking [5]: 95%
IC50 [5]: 3.99 nM
MFIr on NK cells (Ab/Iso) [6]: 2.8
B1: AB-407 (antibody, V domains shown)
VH: QVQLQQSGAELAKPGSSVMISCKASGYTFTNYAVHWIKQTTGQALEWTGYIAPGSGVTKYNEKFKGKATLTVDKSSTTAYMQLSSLTPVDTAVYYCASGTTRFAYWGQGTLVTVSS
VL: DIVLTQSPALAVSLGQRATISCRASQSVSLSSYNLMQWYQQKPGQEPKILIYDASNLPSGIPARFSGSGSGTDFTLTIDPVQADDIATYYCQQSKDDPLTFGSGTKLEIK
